What all share (test): SPOT array
Experiment [1] has as its target T1, Yhr016c SH3 (YSC84_YEAST), P32793.
T1 chain: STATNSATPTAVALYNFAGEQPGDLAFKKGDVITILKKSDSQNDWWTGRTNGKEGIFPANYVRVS

The target in experiment [2] is Sho1 SH3 (SHO1_YEAST), P40073.
For experiment [3], the target named is T2, Rvs167 SH3 (RV167_YEAST), P39743.
T2 chain: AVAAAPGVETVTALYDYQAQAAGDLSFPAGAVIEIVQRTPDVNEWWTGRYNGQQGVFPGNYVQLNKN

For experiment [4], the target named is T3, Boi1 SH3 (BOI1_YEAST), P38041.
T3 chain: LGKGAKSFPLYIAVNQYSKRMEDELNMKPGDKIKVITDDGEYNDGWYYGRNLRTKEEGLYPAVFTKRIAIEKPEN

In experiment [5] the target is T4, Boi2 SH3 (BOI2_YEAST), P39969.
T4 chain: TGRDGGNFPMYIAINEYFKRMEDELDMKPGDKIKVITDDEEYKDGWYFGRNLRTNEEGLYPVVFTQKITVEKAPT

Experiment [6] addresses T5, Myo5 SH3 (MYO5_YEAST), Q04439.
T5 chain: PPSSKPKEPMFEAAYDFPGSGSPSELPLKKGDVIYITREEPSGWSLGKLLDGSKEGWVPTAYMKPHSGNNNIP

The target of experiment [7] is T6, Yfr024 SH3 (LSB3_YEAST), P43603.
T6 chain: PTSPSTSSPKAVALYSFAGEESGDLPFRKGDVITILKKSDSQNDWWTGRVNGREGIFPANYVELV

Chain of Sho1 SH3 (SHO1_YEAST), P40073 (P40073 295-366): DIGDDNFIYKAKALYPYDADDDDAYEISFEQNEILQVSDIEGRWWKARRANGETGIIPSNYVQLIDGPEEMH

Turning to KNLKKYDPEDPNRR [YPL093W 383-396], the normalised SPOT signal, Boehringer light units (BLU); mean over the file's lines of this peptide in experiment [1] is 71.3; in experiment [2] it was 76.6; in experiment [3], 121; in experiment [4] it was 656; in experiment [5] it was 0; in experiment [6] it was 207. Moreover, the normalised SPOT signal, Boehringer light units (BLU); mean over the file's lines of this peptide in experiment [7] is 45.8.

For the molecule KNLLREIPQVPAFQ [YLR077W 141-154], the normalised SPOT signal, Boehringer light units (BLU); mean over the file's lines of this peptide was found to be 142 in experiment [1]; 84.8 in experiment [2]; 2030 in experiment [3]; 196 in experiment [4]; 6.5 in experiment [5]; 104 in experiment [6]. This molecule had a normalised SPOT signal, Boehringer light units (BLU); mean over the file's lines of this peptide in experiment [7] of 1080.

As for KNIIKYVPWGPPLE [YLR142W 425-438], the normalised SPOT signal, Boehringer light units (BLU); mean over the file's lines of this peptide in experiment [1] came out at 26.6; in experiment [2] it was 33.3; in experiment [3], 16.2; in experiment [4], 0; in experiment [5], 13.9; in experiment [6], 164. Moreover, the normalised SPOT signal, Boehringer light units (BLU); mean over the file's lines of this peptide in experiment [7] was 1.3.

As for KLPKKFPPPTPLLE [YER172C 1312-1325], the normalised SPOT signal, Boehringer light units (BLU); mean over the file's lines of this peptide in experiment [1] was determined as 6; in experiment [2], 69.2; in experiment [3] it was 10.1; in experiment [4], 821; in experiment [5], 0; in experiment [6], 19700. The normalised SPOT signal, Boehringer light units (BLU); mean over the file's lines of this peptide in experiment [7] amounted to 39.9.

As to KLKIKILPEQPQLE [YDR407C 838-851], the normalised SPOT signal, Boehringer light units (BLU); mean over the file's lines of this peptide in experiment [1] worked out at 17.7; in experiment [2], 548; in experiment [3] it was 56.9; in experiment [4], 1350; in experiment [5], 0; in experiment [6], 261. The molecule further displayed a normalised SPOT signal, Boehringer light units (BLU); mean over the file's lines of this peptide in experiment [7] of 6.

With KMAKKLLPYKPHNS [YBR270C 208-221], the normalised SPOT signal, Boehringer light units (BLU); mean over the file's lines of this peptide in experiment [1] was 37.4; in experiment [2], 522; in experiment [3] it was 37.6; in experiment [4] it was 156; in experiment [5], 9.1; in experiment [6] it was 708. This molecule gave a normalised SPOT signal, Boehringer light units (BLU); mean over the file's lines of this peptide in experiment [7] of 182.

As for KLHEKYFPDLPKEV [YDR527W 252-265], the normalised SPOT signal, Boehringer light units (BLU); mean over the file's lines of this peptide in experiment [1] amounted to 4.5; in experiment [2], 30.2; in experiment [3], 57.3; in experiment [4], 90.7; in experiment [5], 15.3; in experiment [6], 110. The normalised SPOT signal, Boehringer light units (BLU); mean over the file's lines of this peptide in experiment [7] came to 30.7.

In the case of KNILKVSPVLPSIL [YMR247C 301-314], the normalised SPOT signal, Boehringer light units (BLU); mean over the file's lines of this peptide in experiment [1] amounted to 10.1; in experiment [2] it was 57.8; in experiment [3] it was 59.5; in experiment [4], 304; in experiment [5], 0.8; in experiment [6], 118. This molecule had a normalised SPOT signal, Boehringer light units (BLU); mean over the file's lines of this peptide in experiment [7] of 0.

Consider KLYYRHRPQKPVRT [YOL164W 144-157], for which the normalised SPOT signal, Boehringer light units (BLU); mean over the file's lines of this peptide in experiment [1] was determined as 86.9; in experiment [2], 126; in experiment [3], 153; in experiment [4], 599; in experiment [5], 27.1; in experiment [6], 916. This molecule also registered a normalised SPOT signal, Boehringer light units (BLU); mean over the file's lines of this peptide in experiment [7] of 756.

As for KKVIRNYPGHPEGT [YDR364C 152-165], the normalised SPOT signal, Boehringer light units (BLU); mean over the file's lines of this peptide was 14 in experiment [1]; 64.4 in experiment [2]; 29 in experiment [3]; 582 in experiment [4]; 24.6 in experiment [5]; 418 in experiment [6]. In addition, in experiment [7], the normalised SPOT signal, Boehringer light units (BLU); mean over the file's lines of this peptide was 34.3.

Take KLVLRNVPILPILN [YBL008W 776-789]: the normalised SPOT signal, Boehringer light units (BLU); mean over the file's lines of this peptide amounted to 74.5 in experiment [1]; 24.2 in experiment [2]; 383 in experiment [3]; 41.9 in experiment [4]; 17.3 in experiment [5]; 303 in experiment [6]. In experiment [7], this molecule showed a normalised SPOT signal, Boehringer light units (BLU); mean over the file's lines of this peptide of 1510.

For KMSAKNTPKHPVDI [YPL082C 209-222], the normalised SPOT signal, Boehringer light units (BLU); mean over the file's lines of this peptide in experiment [1] turned out to be 332; in experiment [2], 102; in experiment [3], 301; in experiment [4] it was 1220; in experiment [5], 42.3; in experiment [6] it was 307. For the same molecule, in experiment [7], the normalised SPOT signal, Boehringer light units (BLU); mean over the file's lines of this peptide was 978.

In the case of KLNKRVLPSKPKKS [YLR183C 350-363], the normalised SPOT signal, Boehringer light units (BLU); mean over the file's lines of this peptide turned out to be 165 in experiment [1]; 1390 in experiment [2]; 810 in experiment [3]; 309 in experiment [4]; 1.5 in experiment [5]; 919 in experiment [6]. Further, in experiment [7], the normalised SPOT signal, Boehringer light units (BLU); mean over the file's lines of this peptide amounted to 2670.

In the case of KKNPKKSPMGPQGA [YPL214C 146-159], the normalised SPOT signal, Boehringer light units (BLU); mean over the file's lines of this peptide was found to be 70.6 in experiment [1]; 136 in experiment [2]; 143 in experiment [3]; 725 in experiment [4]; 66.4 in experiment [5]; 1010 in experiment [6]. The molecule also showed a normalised SPOT signal, Boehringer light units (BLU); mean over the file's lines of this peptide in experiment [7] of 291.

The values are drawn from PMC314469, “Protein Interaction Networks by Proteome Peptide Scanning” (PLoS Biology, 2004).
